Entries after “also recorded” stand apart in the source; their conditions may differ.
Experiments:
CCR5 [1] = assay: CCR5 serine phosphorylation in monocytes (anti-phosphoserine IP, anti-CCR5 immunoblot); assay type: cell-based, human; details: for serine phosphorylation of CCR5 / time of maximal CCR5 phosphorylation: human monocytes; for serine phosphorylation of CCR5: 37° C.; for MIP-1β-induced CCR5 phosphorylation after preincubation with PKC inhibitor: then MIP-1β 1 min
Description: Monocytes were isolated by counter-flow elutriation from the peripheral blood of normal donors (NIH Clinical Center, Transfusion Medicine Department, Bethesda, Md.) and enriched for mononuclear cells by using counter-flow elutriation. The purity of the cell preparations was examined by morphology after cytospin, and was >90%. The cells were stimulated with different concentrations of chemokines for indicated time periods at 37° C. and lysed for 20 min on ice with periodic mixing in lysis buffer (1% Triton X-100, 20 mM, Tris-HCl pH 8.0, 137 mM NaCl, 15% glycerol, 5 mM EDTA) containing phosphatase and protease inhibitors (1 mM phenylmethylsulfonyl fluoride, 5 μg/ml aprotinin, 5 μg/ml leupeptin, 1 mM sodium orthovanadate, 1 mM EGTA). Cell lysates were precleared with 30 µl of washed Protein-A sepherose beads (Pharmacia Biotech. Piscataway, N.J.), 1 μg of polyclonal anti-phospho-serine antibody (Zymed Laboratory Inc. South San Francisco, Calif.) was added to 200 μg cell lysates diluted with 2×immunoprecipitation (IP) buffer (1×buffer contains 1%Triton X-100, 10 mM Tris-HCl pH 7.4, 137 mM NaCl, 1 mM EDTA, 1 mM EGTA, 0.2 mM sodium orthovanadate, 0.2 mM PMSF, 0.5% NP-40). The reaction mixture was incubated at 4° C. overnight under constant rocking. The immune complex was captured by adding 50 μl of washed Protein-A sepharose beads (25 μl packed beads) and incubation of the reaction mixture at 4° C. for additional 2 hours. The beads were spun down (10 seconds at 14,000 rpm), the pellets were washed 3 times with ice-cold IP buffer, resuspended in 30 μl of 2×Laemmli sample buffer (126 mM Tris-HCl, 20% Glycerol, 4% SDS, 0.005% bromophenol blue with or without addition of 1% 2-mercaptoethanol, Novex, San Diego, Calif.) and boiled for 5 min to elute the immune complex. After electrophoresis on 4-12% SDS-PAGE precast gel (Novex), the proteins were transferred to Immobilon P membranes (Millipore, Bedford, Mass.). The membranes were blocked in freshly prepared PBS containing 3% dry milk 2 h, then were incubated with 1 μg/ml of polyclonal anti-CCR5 antibody (Millenium Biotechnology, Ramona, Calif.) overnight at 4° C. followed by washing 3 times with PBS containing 0.05% Tween 20. The membranes were incubated with a horse radish-peroxidase conjugated goat anti-rabbit IgG (1:5000) (Sigma, St. Louis, Mo.) in PBS containing 3% dry milk for 1 hour at room temperature with agitation. After washing 3 times with PBS-0.05% Tween 20, the membranes were incubated with Super Signal Chemiluminescent Substrate Stable Peroxide Solution (Pierce, Rockford, Ill.) for 1 min, and exposed to BIOMAX-MR film (Eastman Kodak Company, Rochester, N.Y.).
Monocytes stimulated with different concentrations of stimulants for indicated time periods at 37° C. were lysed for 20 min on ice with periodic mixing in lysis buffer [1% Triton X-100, 20 mM Tris-HCl (pH 8.0), 137 mM NaCl, 15% glycerol, 5 mM EDTA] containing phosphatase and protease inhibitors (1 mM phenylmethylsulfonyl fluoride, 5 μg/ml aprotinin, 5 μg/ml leupeptin, 1 mM sodium orthovanadate, 1 mM EGTA). Cell lysates were precleaned with 30 μl of washed Protein A Sepharose beads (15 μl packed beads) at 4° C. for 1 hour and 1 μg of polyclonal anti-phosphoserine antibody was added to 200 μg cell lysates diluted with 2×immunoprecipitation (IP) buffer [1×: 1% Triton X-100, 10 mM Tris-HCl (pH 7.4), 137 mM NaCl, 1 mM EDTA, 1 mM EGTA, 0.2 mM […], 0.2 mM PMSF, 0.5% NP-40]. The reaction mixture was incubated at 4° C. overnight under constant rocking. The immunecomplex was captured by adding 50 μl of washed Protein A sepharose beads (25 μl packed beads) and incubating the reaction mixture at 4° C. for an additional 2 hours. […]

monocytes [2] = assay: Ca2+ mobilization of monocytes in response to chemokines after preincubation (heterologous desensitization); assay type: cell-based, human; details: staurosporine 2.5 ng/ml 30 min
Description: Calcium mobilization was measured by incubating monocytes (2×10^7/ml) in loading medium (DMEM, 10% FCS) with 5 μM Fura-2 AM (Molecular Probes, Eugene, Oreg.) for 30 min at room temperature in the dark. The dye-loaded cells were washed 3 times and resuspended in saline buffer (138 mM NaCl, 6 mM KCl, 1 mM CaCl2, 10 mM Hepes pH 7.4, 5 mM glucose, 0.1% BSA). The cells were then transferred into quartz cuvettes (2×10^6 cells in 2 ml) which were placed in a luminescence spectrometer (LS-50B, Perkin-Elmer, Beaconsfield, UK). Stimulants at different concentrations were added in a volume of 20 μl to each cuvette at the indicated time points. The ratio of fluorescence at 340 and 380 nm was calculated using a FL-WinLab program (Perkin Elmer). To examine the effect of fMLP, monocytes were preincubated with 10^−6 M fMLP or with medium alone for 60 min at 37° C. The cells were thoroughly washed and then were stained with Fura-2 for the calcium mobilization desensitization. The results are representative of at least three experiments performed.
(§1) Calcium mobilization was measured by incubating 2×10^7/ml cells in loading medium (DMEM, 10% FBS) with 5 μM Fura-2 AM (Molecular Probes, Eugene, Oreg.) for 30 min at room temperature in the dark. The dye-loaded cells were washed 3 times with loading medium and resuspended in saline buffer [138 mM NaCl, 6 mM KCl, 1 mM CaCl2, 10 mM HEPES (pH 7.4), 5 mM Glucose, 0.1% BSA] at a concentration of 1×10^6/ml. The cells were then transferred into quartz cuvettes (2 ml) which were placed in a luminescence spectrometer (LS-50B, Perkin-Elmer, Beaconsfield, England). Stimulants at different concentrations were added in a volume of 20 μl to each cuvette at the indicated time points. The ratio of fluorescence at 340 and 380 nm wavelength was calculated using a FL WinLab program (Perkin-Elmer).

monocytes [3] = assay: Ca2+ mobilization in monocytes (Fura-2); assay type: cell-based, human
Description: as §1
Calcium mobilization was assayed by incubating 2×10^7/ml of monocytes, neutrophils, FPRL1 or FPR transfectants in loading buffer containing 138 mM NaCl, 6 mM KCl, 1 mM CaCl2, 10 mM HEPES (pH 7.4), 5 mM glucose, 0.1% BSA with 5 μM Fura-2 (Sigma) at 37° C. for 30 min. The dye-loaded cells were washed and resuspended in fresh loading buffer. The cells were then transferred into quartz cuvettes (10^6 cells in 2 ml) which were placed in a luminescence spectrometer LS50 B (Perkin-Elmer Limited, Beaconsfield, England). Stimulants at different concentrations were added in a volume of 20 μl to the cuvettes at indicated time points. The ratio of fluorescence at 340 and 380 nm wavelength was calculated using the FL WinLab program (Perkin-Elmer).

monocytes [4] = assay: Monocyte chemotaxis, 48-well micro-chemotaxis chamber; assay type: cell-based, human; details: 37° C., 30 min
FPRL1 = target: T1, FPRL1 (Homo sapiens, UniProt P25090); assay type: cell-based; details: FPRL1/293 cells; 100 ng/ml, 37° C., 30 min
T1 construct: expressed in transfected cells; host or cells: HEK 293
T1 sequence (P25090 1-351): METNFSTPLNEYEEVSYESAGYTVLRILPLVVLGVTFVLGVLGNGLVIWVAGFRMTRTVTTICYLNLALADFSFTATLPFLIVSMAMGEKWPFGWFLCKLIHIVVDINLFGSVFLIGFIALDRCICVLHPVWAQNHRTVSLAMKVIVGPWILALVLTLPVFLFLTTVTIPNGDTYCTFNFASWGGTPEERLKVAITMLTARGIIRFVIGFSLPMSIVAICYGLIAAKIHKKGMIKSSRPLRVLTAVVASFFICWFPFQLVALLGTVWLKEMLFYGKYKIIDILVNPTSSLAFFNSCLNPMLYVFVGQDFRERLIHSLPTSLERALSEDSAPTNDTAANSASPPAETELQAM

FPR = target: T2, FPR (Homo sapiens, UniProt P21462); assay: Migration of ETFR cells; assay type: cell-based; details: ETFR cells
T2 construct: H. Ali and R. Snyderman (Duke University); host or cells: RBL-2H3 rat basophilic leukemia cells
T2 sequence (P21462 1-350): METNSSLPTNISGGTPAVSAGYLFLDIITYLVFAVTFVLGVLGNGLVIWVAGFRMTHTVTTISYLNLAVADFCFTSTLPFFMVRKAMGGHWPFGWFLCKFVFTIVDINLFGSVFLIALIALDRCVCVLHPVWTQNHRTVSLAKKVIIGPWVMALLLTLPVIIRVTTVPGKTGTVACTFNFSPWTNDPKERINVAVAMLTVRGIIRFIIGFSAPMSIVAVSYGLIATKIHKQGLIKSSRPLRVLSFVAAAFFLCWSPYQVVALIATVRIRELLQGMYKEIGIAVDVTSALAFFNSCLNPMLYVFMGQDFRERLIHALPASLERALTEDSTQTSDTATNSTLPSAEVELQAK

CCR5 [5] = assay: Surface expression of CCR5 on monocytes by flow cytometry; assay type: cell-based, human; details: FITC-anti-CCR5 2D7
Description: The change of surface expression of CCR5 on monocytes was monitored by FACS analyses (courtesy of L. […] The cells were then washed twice with DPBS containing 2% BSA and fixed with 1% Paraformaldehyde (Sigma). The fluorescence was measured by flow cytometer (Becton Dickinson, San Jose, Calif.). Results are presented as the percentage of cells stained with anti-CCR5 antibody.

CCR5 [6] = assay type: cell-based, human; details: HOS/CD4/CCR5 cells co-expressing FPR

## T20/DP178: synthetic peptide corresponding to a region in the C-terminus of the ectodomain of gp41
CCR5 [1]
  serine phosphorylation of CCR5: significant and dose-dependent phosphorylation of CCR5

## CN[C@@H]1C[C@H]2O[C@@](C)([C@@H]1OC)n1c3ccccc3c3c4c(c5c6ccccc6n2c5c31)C(=O)NC4 [staurosporine]
CCR5 [1]; monocytes
  MIP-1β-induced CCR5 phosphorylation after preincubation with PKC inhibitor: did not affect
CCR5 [1]; monocytes, staurosporine 2.5 ng/ml 30 min, then V3 peptide 1.5 μM 60 min
  V3 peptide-induced CCR5 phosphorylation after pretreatment with PKC inhibitor: no longer significantly induced phosphorylation of CCR5
Monocytes [2]
  Ca2+ mobilization in response to RANTES or SDF-1α after PKC inhibitor followed by V3 peptide: almost normal Ca^2+ mobilization

## MCP-1: chemokine
Monocytes [3]
  Ca2+ mobilization: significant Ca^2+ mobilization

## pertussis toxin
Monocytes [4]; human phagocytes, 100 ng/ml
  chemotaxis response to V3 peptide after preincubation of the cells: inhibited
Monocytes [4]; phagocytes, 100 ng/ml toxin
  migration in response to W peptide after pretreatment of the cells: completely inhibited
FPRL1
  W peptide induced migration after pretreatment of the cells: inhibited
FPR
  W peptide induced migration after pretreatment of the cells: inhibited

## calphostin C
CCR5 [1]; monocytes
  MIP-1β-induced CCR5 phosphorylation after preincubation with PKC inhibitor: little effect
CCR5 [1]; monocytes, calphostin C 50 ng/ml 2.5 h, then fMLP 10^−6 M 60 min
  fMLP-induced CCR5 phosphorylation after preincubation with PKC inhibitor: markedly reduced

## SDF-1α
Monocytes [3]
  Ca2+ mobilization: significant Ca^2+ mobilization

B1: RANTES: chemokine that activates multiple receptors including CCR5 (protein, UniProt P13501 24-91, looked up)
C-C motif chemokine 5: SPYSSDTTPCCFAYIARPLPRAHIKEYFYTSGKCSNPAVVFVTRKNRQVCANPEKKWVREYINSLEMS
CCR5 [1]
  time of maximal CCR5 phosphorylation: 1 min
  serine phosphorylation of CCR5: rapidly phosphorylated
CCR5 [5]
  expression of CCR5 on the cell surface: downregulated
Monocytes [3]
  Ca2+ mobilization: induced a transient rise in Ca^2+; also recorded: significant Ca^2+ mobilization

B2: SAA: serum amyloid A, recombinant, purchased from Pepro Tech (protein, UniProt P0DJI8 19-122, looked up)
Serum amyloid A-1 protein: RSFFSFLGEAFDGARDMWRAYSDMREANYIGSDKYFHARGNYDAAKRGPGGAWAAEVITDARENIQRFFGHGAEDSLADQAANEWGRSGKDPNHFRPAGLPEKY
CCR5 [1]
  serine phosphorylation of CCR5: significant and dose-dependent phosphorylation of CCR5

B3: MIP-1β: chemokine, CCR5 agonist (protein)
chain: APMGSDPPTACCFSYTARKLPRNFVVDYYETSSLCSQPAVVFQTKRSKQVCADPSESWVQEYVYDLELN
CCR5 [1]
  time of maximal CCR5 phosphorylation: 1 min
  serine phosphorylation of CCR5: rapidly phosphorylated
CCR5 [5]
  expression of CCR5 on the cell surface: downregulated
Monocytes [3]
  Ca2+ mobilization: poor inducer of Ca^2+ flux

B4: MIP-1α: chemokine that activates multiple receptors including CCR5 (protein, UniProt P10147 24-92, looked up)
C-C motif chemokine 3: SLAADTPTACCFSYTSRQIPQNFIADYFETSSQCSKPGVIFLTKRSRQVCADPSEEWVQKYVSDLELSA
CCR5 [1]
  time of maximal CCR5 phosphorylation: 1 min
  serine phosphorylation of CCR5: rapidly phosphorylated
CCR5 [6]
  phosphorylation of CCR5: induced an increase in phosphorylation of CCR5
CCR5 [5]
  expression of CCR5 on the cell surface: downregulated
Monocytes [3]
  Ca2+ mobilization: induced a transient rise in Ca^2+

From patent US6808877B2, “Ligands for FPR class receptors that induce a host immune response to a pathogen or inhibit HIV infection” (priority 2000, dated 2004)
